Source: paper PMC2674207

Target: importin-α (PBMCs) (human (endogenous in PBMCs)) (UniProt P52292)
Experiment: co-IP; PBMCs from seven steroid-naive asthma patients after inhaled FP (100 or 500 µg via a spacer) or placebo in vivo, blood taken at 1 and 2 h; densitometry of blots

GATA-3–importin-α association (densitometry, median), 2 h after inhaled FP 500 µg: 879 | GATA-3–importin-α association (densitometry, median), reference before the decrease: 13500
Substance: phospho-GATA-3 (PBMCs) (from UniProt P23771 1-443) (natural protein)
